Ends that are not written are not given here.
Columns and labels:
[1] = molecular target: T1, Activated human Chk2 enzyme (Homo sapiens, UniProt O96017); assay: K-LISA Checkpoint Activity Kit: Chk2 phosphorylation of biotinylated cdc25c surrogate substrate peptide; type: biochemical; settings: peptide 50 μg/mL final concentration; for inhibition of the activity of Chk2 against the substrate peptide (in words): carboxy-terminal amidated peptides, absorbance 450/540 nm
T1 construct: purchased Sigma (St. Louis, MO)
Method: Activated human Chk2enzyme for these tests was obtained from Sigma (St. Louis, MO).
This incubation allowed for substrate phosphorylation by Chk2 and substrate capture in a single step. Following incubation, the phosphorylated substrate was detected using an anti-phosphoserine primary antibody, a horseradish peroxidase (HRP)-conjugated secondary antibody and TMB (tetramethylbenzidine) substrate for color development (the primary and secondary antibodies, and TMB, were provided in the K-LISA™ Checkpoint Activity Kit). Assay sensitivity was increased by the addition of the Stop solution provided in the kit. Relative Chk2 activity was determined by reading the absorbance of each well at dual wavelengths 450/540 nm.

[2] = molecular target: Activated human checkpoint kinase 2 (Chk2) (human)

T1 sequence (O96017 whole entry): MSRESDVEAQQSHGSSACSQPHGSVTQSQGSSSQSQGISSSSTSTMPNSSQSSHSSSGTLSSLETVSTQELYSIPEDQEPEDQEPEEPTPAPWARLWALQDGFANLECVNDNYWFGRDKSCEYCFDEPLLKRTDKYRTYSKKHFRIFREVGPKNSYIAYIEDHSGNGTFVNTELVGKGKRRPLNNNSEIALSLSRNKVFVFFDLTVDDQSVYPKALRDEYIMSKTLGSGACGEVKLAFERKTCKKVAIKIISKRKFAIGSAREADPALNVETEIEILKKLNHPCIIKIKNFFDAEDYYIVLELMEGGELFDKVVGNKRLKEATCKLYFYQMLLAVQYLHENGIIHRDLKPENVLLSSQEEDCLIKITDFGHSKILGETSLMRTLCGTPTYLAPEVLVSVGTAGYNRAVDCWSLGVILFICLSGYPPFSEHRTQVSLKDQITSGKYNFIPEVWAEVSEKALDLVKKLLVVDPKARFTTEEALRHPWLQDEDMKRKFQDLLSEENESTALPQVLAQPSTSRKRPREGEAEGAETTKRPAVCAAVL

| inhibition of the activity of Chk2 against the substrate peptide (in words) [1] | reduction of Chk2 phosphorylation activity ([1]; versus control Chk2 activity) | Reduction of Chk2 phosphorylation activity (K-LISA, absorbance 450/540 nm) [2] [%] | Molecule |
| --- | --- | --- | --- |
| inhibited | – | – | HSLYQSH (HSLYQSH-NH2; listed as Homo sapiens) [SEQ ID NO:8] |
| inhibited | – | – | YHSLYESK (YHSLYESK-NH2; listed as Homo sapiens) [SEQ ID NO:5] |
| inhibited | about 48% | – | SLYQS (not fully specified (C-terminus); listed as Homo sapiens) [SEQ ID NO:10] |
| inhibited | – | – | YHSLYQSHL (YHSLYQSHL-NH2; listed as Homo sapiens) [SEQ ID NO:2] |
| inhibited | – | – | YHSIYQSHI (YHSIYQSHI-NH2; listed as Homo Sapiens) [SEQ ID NO:3] |
| inhibited | – | – | FHSIYQSH (FHSIYQSH-NH2; listed as Homo sapiens) [SEQ ID NO:6] |
| – | – | 48 | SLYQS-NH2 [SEQ ID NO:10 peptide (SLYQS; Ser-Leu-Tyr-Gln-Ser), carboxy-terminal amidated] |

Source: patent publication US8597902B2, “Peptide protection against ultraviolet light toxicity” (Helix Biomedix, Inc., priority 2009, dated 2013)
